T1: gp32 (gene 32 protein, ssDNA-binding protein) (bacteriophage T4, UniProt P03695 1-301)
T1 sequence: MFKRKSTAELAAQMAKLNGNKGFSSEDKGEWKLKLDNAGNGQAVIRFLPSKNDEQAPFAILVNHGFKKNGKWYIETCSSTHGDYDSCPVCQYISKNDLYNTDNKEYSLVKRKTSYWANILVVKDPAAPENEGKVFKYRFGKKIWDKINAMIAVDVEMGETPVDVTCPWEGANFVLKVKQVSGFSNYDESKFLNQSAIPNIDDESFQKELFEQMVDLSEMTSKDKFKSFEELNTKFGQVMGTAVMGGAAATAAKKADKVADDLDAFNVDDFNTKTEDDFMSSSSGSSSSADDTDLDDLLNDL


These binders were tested against T1, gp32 (gene 32 protein, ssDNA-binding …) (assay: fluorescence titration).

Going from AAAAAAAA (ssDNA, 2-aminopurine at positions 6,7 (written as A)) [8A6,7] to TTTTTAAT (ssDNA, 2-aminopurine at positions 6,7 (written as A)) [8P6,7], the Kd rises from 3.2 ± 0.3 µM to 10.3 ± 1 µM (3.2-fold).

TTTAATTT (ssDNA, 2-aminopurine at positions 4,5 (written as A)) [8P4,5] and TAATTTTT (ssDNA, 2-aminopurine at positions 2,3 (written as A)) [8P2,3] are within error of each other in Kd: 4.2 ± 0.4 µM for the first, 3.5 ± 0.4 µM for the second.

AAAAAAAA (ssDNA, 2-aminopurine at positions 2,3 (written as A)) [8A2,3] showed a Kd of 4.1 ± 0.4 µM.
